No end group written: not given here.
T1: recombinant His-tagged Der p1 (dust mite, UniProt P08176 99-320, limits assumed)
T1 construct: Recombinant His-tagged protein made by the applicant; also called Der p1-His; Der pl; not shown: His tag
T1 sequence (looked up): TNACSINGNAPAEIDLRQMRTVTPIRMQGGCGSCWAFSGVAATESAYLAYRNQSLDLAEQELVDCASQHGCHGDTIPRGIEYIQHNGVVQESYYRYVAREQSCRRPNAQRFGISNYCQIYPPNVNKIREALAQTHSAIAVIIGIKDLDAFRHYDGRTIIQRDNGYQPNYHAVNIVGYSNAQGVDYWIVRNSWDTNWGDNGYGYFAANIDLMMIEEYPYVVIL

B1: SDAB22110-2-B2 (peptide)
peptide: GIHMALM
modifications: also: biotinylated, site not given here
notes: 7-amino acid peptide from a phage display library
B2: SDAB22110-2-C3 (peptide)
peptide: YPTWAYR
modifications: also: biotinylated, site not given here
notes: as for B1
B3: SDAB22110-2-D3 (peptide)
peptide: HSGPECG
modifications: also: biotinylated, site not given here
notes: as for B1
B4: SDAB22110-2-D9 (peptide)
peptide: LTGYGMS
modifications: also: biotinylated, site not given here
notes: as for B1
B5: SDAB22110-2-F1 (peptide)
peptide: AVVSFYP
modifications: also: biotinylated, site not given here
notes: as for B1
B6: SDAB22110-4-3-B02: anti-Fel d1 VHH clone, SEQ ID NO: 54 (protein)
VHH: QVQLVESGGGLVQPGGSLRLSCVASGFTFSFYTMEWYRQAAGKQRELVAGLTASGTTHYADSAKGRFTISRDNAWNTVFLQMNGLKPEDTAVYYCNAYSGYRDYWGQGTQVTVSL
B7: SDAB22110-4-3-E05: anti-Fel d1 VHH clone, SEQ ID NO: 55 (protein)
VHH: QVQLVESGGGLVQPGGSLRLSCVGSGFTFSQYAMRWYRQVPGKARELVAAISRSGDFMYYADSVKGRFTISRDNVKSAVILQMNSLKPEDTAVYYCYGQATISDTLWGQGTQVTVSS
B8: SDAB22110-4-3-G08: anti-Fel d1 VHH clone, SEQ ID NO: 56 (protein)
VHH: DVQLVESGGGLVQPGGSLRLSCAASGFTFSLYYMSWYRQVPGKERELVATITSGTHATTYADSVKGRFTISRDNAKNTVSLQMNSLKREDTGVYYCKRTNAGQDPWGQGTQVTVSS
B9: SDAB22110-4-3-H02: anti-Fel d1 VHH clone, SEQ ID NO: 57 (protein)
VHH: QLQLVESGGGLVQPGGSLRLSCEASGFTFKYYTMSWYRQAPGKERELVATITNGDRTNYADSVKGRFTISRDNAKNTLYLQMNSLKPYDTAVYYCNRHLPLLQIWGQGTQVTVSS

Legend:
[1] = target: T1, recombinant His-tagged Der p1; test: ELISA, Der p1 on plate, biotinylated peptide at 10, duplicate 1
Experimental: (§1) An ELISA was used to validate identified peptides. Der p1 was bound to the bottom of a plate. Different concentrations of the chosen (biotinylated) peptides were added and then washed. Then, HRP-streptavidin (which binds to the biotin) was added and an OD at 450 nm is measured. Duplicate measurements are separated by commas.

[2] = target: T1, recombinant His-tagged Der p1; test: ELISA, Der p1 on plate, biotinylated peptide at 10, duplicate 2
Experimental: as §1

[3] = target: T1, recombinant His-tagged Der p1; test: ELISA, Der p1 on plate, biotinylated peptide at 30, duplicate 1
Experimental: as §1

[4] = target: T1, recombinant His-tagged Der p1; test: ELISA, Der p1 on plate, biotinylated peptide at 30, duplicate 2
Experimental: as §1

[5] = target: T1, recombinant His-tagged Der p1; test: ELISA, Der p1 on plate, biotinylated peptide at 0.041, duplicate 1
Experimental: as §1

[6] = target: T1, recombinant His-tagged Der p1; test: ELISA, Der p1 on plate, biotinylated peptide at 0.041, duplicate 2
Experimental: as §1

[7] = target: T1, recombinant His-tagged Der p1; test: ELISA, Der p1 on plate, biotinylated peptide at 0.123, duplicate 1
Experimental: as §1

[8] = target: T1, recombinant His-tagged Der p1; test: ELISA, Der p1 on plate, biotinylated peptide at 0.123, duplicate 2
Experimental: as §1

[9] = target: T1, recombinant His-tagged Der p1; test: ELISA, Der p1 on plate, biotinylated peptide at 0.370, duplicate 1
Experimental: as §1

[10] = target: T1, recombinant His-tagged Der p1; test: ELISA, Der p1 on plate, biotinylated peptide at 0.370, duplicate 2
Experimental: as §1

[11] = target: T1, recombinant His-tagged Der p1; test: ELISA, Der p1 on plate, biotinylated peptide at 1.111, duplicate 1
Experimental: as §1

[12] = target: T1, recombinant His-tagged Der p1; test: ELISA, Der p1 on plate, biotinylated peptide at 1.111, duplicate 2
Experimental: as §1

[13] = target: T1, recombinant His-tagged Der p1; test: ELISA, Der p1 on plate, biotinylated peptide at 3.333, duplicate 1
Experimental: as §1

[14] = target: T1, recombinant His-tagged Der p1; test: ELISA, Der p1 on plate, biotinylated peptide at 3.333, duplicate 2
Experimental: as §1

Fel D1 = target: T2, Fel D1 (Felis catus, UniProt P30438); test: ELISA binding assay of anti-Fel d1 VHH clones on Fel D1 epitopes; set-up: species or system cat; conditions: Epitope Recognized AKMTEEDKENALS (SEQ ID NO: 60)
T2 construct: made in house; host or cells: chemically synthesized peptides
Experimental: 2 microgram per milliliter (μg/mL) target antigen is coated in a 96-well plate and ELISA assay is performed after incubation with candidate VHHs. The binding EC50 of each clone is calculated using Prism GraphPad. The positive control antibody is involved as an internal control.
Four distinct epitopes of Fel D1 were selected to be used for further identification. Peptides were synthesized for the four epitopes for VHH identification.
Isolated VHH clones were further validated by performing an ELISA assay as described in Example 1. Binding results are shown in FIG. 15B-15D for the epitope of SEQ ID NO: 61. Binding results are shown in FIG. 16 for the epitope of SEQ ID NO: 59. Binding results are shown in FIG. 17A-17E for the epitope of SEQ ID NO: 60. Binding results are shown in FIG. 18 for the epitope of SEQ ID NO: 58.

[15] = Thermostability (Tm, Tonset, Tagg) by Nanotemper DSF; assay type: physicochemical; set-up: key to Tm2 / Tagg / Tm1 / Tm / Tm3 / Tonset / Tonset ø (mean) / Tagg ø (mean): temperatures in °C; conditions: for Tm: single melting point
How it was run: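 Isolated VHH clones were heated from 20 °C to 95 °C at 1 °C/min using DSF. Tm, Tonset and Tagg were derived from the thermal curves. Where several melting transitions occurred, each was reported in order (Tm1, Tm2, etc.).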

[16] = Average of two replicates, anti-Fel d1 VHH
[17] = Average of two replicates, anti-Fel d1 VHH, in °C (unit assumed)
[18] = Replicate 1, in °C (unit assumed)
[19] = Replicate 2, in °C (unit assumed)
[20] = anti-Fel d1 VHH, in °C (unit assumed)

Molecule	OD450 [1] [OD450]	OD450 [2] [OD450]	OD450 [3] [OD450]	OD450 [4] [OD450]	OD450 [5] [OD450]	OD450 [6] [OD450]	OD450 [7] [OD450]	OD450 [8] [OD450]	OD450 [9] [OD450]	OD450 [10] [OD450]	OD450 [11] [OD450]	OD450 [12] [OD450]	OD450 [13] [OD450]	OD450 [14] [OD450]	EC50 (Fel D1) [µg/mL]	Tagg ø (mean) [15, 16]	Tonset ø (mean) [15, 16]	Tagg ([15]; Replicate 1)	Tonset ([15]; Replicate 1)	Tagg ([15]; Replicate 2)	further results
B1	0.275	0.289	0.536	0.537	0.07	0.061	0.078	0.066	0.083	0.071	0.089	0.089	0.132	0.136							
B2	0.346	0.376	0.684	0.748	0.058	0.057	0.065	0.065	0.072	0.066	0.104	0.102	0.162	0.191							
B3	3.55	3.57	4.1	4.13	0.468	0.463	0.866	0.906	1.37	1.36	2.16	2.25	2.77	2.88							
B4	0.374	0.357	0.751	0.771	0.061	0.059	0.067	0.068	0.068	0.078	0.095	0.102	0.154	0.154							
B5	0.479	0.516	0.938	0.805	0.079	0.066	0.073	0.075	0.076	0.073	0.131	0.125	0.221	0.209							
B6															12.200	35.68	33.78	35.55	33.78	35.82	Tm ø (mean), first melting point (Tm1) [15, 17]: 42.43; Tm, first melting point (Tm1) [15, 18]: 42.52; Tonset ([15]; Replicate 2): 33.78; Tm, first melting point (Tm1) [15, 19]: 42.34; Tagg ([15]; anti-Fel d1 VHH): 40.93; Tm [15, 20]: 46.83
B7															1.719	40.93	35.67	40.93	35.61	40.93	Tm ø (mean), first melting point (Tm1) [15, 17]: 46.83; Tm, first melting point (Tm1) [15, 18]: 47.02; Tonset ([15]; Replicate 2): 35.73; Tm, first melting point (Tm1) [15, 19]: 46.64; Tagg ([15]; anti-Fel d1 VHH): 31.74; aggregates ([15]; anti-Fel d1 VHH): Possible; Tm1 ([15]; anti-Fel d1 VHH, first melting point, in °C (unit assumed)): 37.85; Tm2 ([15]; anti-Fel d1 VHH, second melting point, in °C (unit assumed)): 47.65; Tm3 ([15]; anti-Fel d1 VHH, third melting point, in °C (unit assumed)): 62.39
B8															2.215	31.74	27.92	31.71	27.93	31.77	Tm ø (mean), first melting point (Tm1) [15, 16]: 37.85,; Tm ø (mean), second melting point (Tm2) [15, 17]: 47.65; Tm ø (mean), third melting point (Tm3) [15, 17]: 62.92; Tm, first melting point (Tm1) ([15]; Replicate 1): 37.77,; Tm, second melting point (Tm2) [15, 18]: 47.76; Tm, third melting point (Tm3) [15, 18]: 61.85; Tm, first melting point (Tm1) ([15]; Replicate 2): 37.92,; Tonset ([15]; Replicate 2): 27.92; Tm, second melting point (Tm2) [15, 19]: 47.53; Tm, third melting point (Tm3) [15, 19]: 62.92; Tagg ([15]; anti-Fel d1 VHH): 42.29; Tm [15, 20]: 58.58
B9															12.940	42.29	47.54	42.24	47.33	42.35	Tm ø (mean), first melting point (Tm1) [15, 17]: 58.58; Tm, first melting point (Tm1) [15, 18]: 58.60; Tonset ([15]; Replicate 2): 47.76; Tm, first melting point (Tm1) [15, 19]: 58.57; Tagg ([15]; anti-Fel d1 VHH): 42.30; Tm ([15]; anti-Fel d1 VHH): 47.50
